Experiments:
AncSZ = experiment: phosphorylation enrichment, bacterial display (enrichment ratio); higher = better substrate or ligand; peptides without Tyr show the background
EPHB1 = EPHB1 (UniProt P54762); experiment: as above
EPHB2 = EPHB2 (UniProt P29323); experiment: as above
FGFR1 = FGFR1 (UniProt P11362); experiment: as above
FGFR3 = FGFR3 (UniProt P22607); experiment: as above
Fer (mouse) = experiment: as above
Fes = Fes (UniProt P07332); experiment: as above
Fyn = Fyn (UniProt P06241); experiment: as above
Hck = Hck (UniProt P08631); experiment: as above
Jak2 = Jak2 (UniProt O60674); experiment: as above
MERTK = MERTK (UniProt Q12866); experiment: as above
c-Abl (mouse) = experiment: as above
c-Src = experiment: as above
Grb2 SH2 = Grb2 SH2 (UniProt P62993); experiment: SH2 binding enrichment of the phosphorylated peptide, bacterial display (enrichment ratio); higher = better substrate or ligand; peptides without Tyr show the background
SHP2-C SH2 = experiment: as above
c-Src SH2 = experiment: as above
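Wherever SH2 binding enrichment of the phosphorylated peptide, bacterial display is given: peptide library displayed on the E. coli surface as eCPX fusions, selected cells deep-sequenced, score is each peptide's frequency after selection divided by its frequency in the input.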
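Wherever phosphorylation enrichment, bacterial display is given: 11-residue human phosphosite peptides and single-mutation variants displayed on the E. coli surface, counted by deep sequencing, each peptide's frequency after selection divided by its frequency in the unselected input library; frequency after pTyr selection over input frequency; kinase dosed for 20-30% of maximal phosphorylation in three min.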

Chain of FGFR3 (P22607 whole entry, looked up): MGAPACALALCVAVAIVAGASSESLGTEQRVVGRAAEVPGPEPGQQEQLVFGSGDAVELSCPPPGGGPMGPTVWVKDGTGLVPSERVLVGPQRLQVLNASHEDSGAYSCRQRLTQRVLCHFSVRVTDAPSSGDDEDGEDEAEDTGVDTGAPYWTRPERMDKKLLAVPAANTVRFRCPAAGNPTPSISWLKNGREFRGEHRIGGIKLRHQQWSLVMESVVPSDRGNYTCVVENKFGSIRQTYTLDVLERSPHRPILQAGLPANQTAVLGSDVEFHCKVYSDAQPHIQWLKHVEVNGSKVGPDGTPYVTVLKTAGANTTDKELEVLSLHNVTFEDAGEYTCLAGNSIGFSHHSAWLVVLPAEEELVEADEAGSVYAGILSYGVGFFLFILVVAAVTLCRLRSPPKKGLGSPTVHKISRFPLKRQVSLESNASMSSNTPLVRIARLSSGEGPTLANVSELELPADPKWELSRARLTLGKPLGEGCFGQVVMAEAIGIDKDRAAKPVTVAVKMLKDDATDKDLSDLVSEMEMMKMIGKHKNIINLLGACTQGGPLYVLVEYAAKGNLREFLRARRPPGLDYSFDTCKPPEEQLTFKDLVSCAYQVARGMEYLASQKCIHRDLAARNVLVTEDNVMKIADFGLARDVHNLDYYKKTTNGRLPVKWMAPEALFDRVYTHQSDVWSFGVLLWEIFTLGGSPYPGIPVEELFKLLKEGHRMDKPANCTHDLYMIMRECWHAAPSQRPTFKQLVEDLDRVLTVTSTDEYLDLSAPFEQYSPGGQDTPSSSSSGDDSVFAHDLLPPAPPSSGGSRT
Chain of Hck (P08631 whole entry, looked up): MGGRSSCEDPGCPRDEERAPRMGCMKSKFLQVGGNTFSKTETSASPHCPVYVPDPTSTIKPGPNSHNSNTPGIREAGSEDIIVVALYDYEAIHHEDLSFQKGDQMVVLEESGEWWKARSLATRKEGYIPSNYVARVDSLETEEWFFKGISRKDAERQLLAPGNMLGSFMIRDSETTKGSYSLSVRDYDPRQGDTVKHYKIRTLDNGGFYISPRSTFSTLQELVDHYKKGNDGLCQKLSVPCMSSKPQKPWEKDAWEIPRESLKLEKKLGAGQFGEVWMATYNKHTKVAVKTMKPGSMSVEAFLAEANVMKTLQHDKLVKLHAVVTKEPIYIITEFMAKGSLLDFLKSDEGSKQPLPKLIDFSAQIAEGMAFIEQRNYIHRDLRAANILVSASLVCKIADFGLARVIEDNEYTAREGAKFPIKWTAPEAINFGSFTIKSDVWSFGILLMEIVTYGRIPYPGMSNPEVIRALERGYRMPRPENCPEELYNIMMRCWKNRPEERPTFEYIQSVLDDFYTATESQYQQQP
Chain of Fes (P07332 whole entry, looked up): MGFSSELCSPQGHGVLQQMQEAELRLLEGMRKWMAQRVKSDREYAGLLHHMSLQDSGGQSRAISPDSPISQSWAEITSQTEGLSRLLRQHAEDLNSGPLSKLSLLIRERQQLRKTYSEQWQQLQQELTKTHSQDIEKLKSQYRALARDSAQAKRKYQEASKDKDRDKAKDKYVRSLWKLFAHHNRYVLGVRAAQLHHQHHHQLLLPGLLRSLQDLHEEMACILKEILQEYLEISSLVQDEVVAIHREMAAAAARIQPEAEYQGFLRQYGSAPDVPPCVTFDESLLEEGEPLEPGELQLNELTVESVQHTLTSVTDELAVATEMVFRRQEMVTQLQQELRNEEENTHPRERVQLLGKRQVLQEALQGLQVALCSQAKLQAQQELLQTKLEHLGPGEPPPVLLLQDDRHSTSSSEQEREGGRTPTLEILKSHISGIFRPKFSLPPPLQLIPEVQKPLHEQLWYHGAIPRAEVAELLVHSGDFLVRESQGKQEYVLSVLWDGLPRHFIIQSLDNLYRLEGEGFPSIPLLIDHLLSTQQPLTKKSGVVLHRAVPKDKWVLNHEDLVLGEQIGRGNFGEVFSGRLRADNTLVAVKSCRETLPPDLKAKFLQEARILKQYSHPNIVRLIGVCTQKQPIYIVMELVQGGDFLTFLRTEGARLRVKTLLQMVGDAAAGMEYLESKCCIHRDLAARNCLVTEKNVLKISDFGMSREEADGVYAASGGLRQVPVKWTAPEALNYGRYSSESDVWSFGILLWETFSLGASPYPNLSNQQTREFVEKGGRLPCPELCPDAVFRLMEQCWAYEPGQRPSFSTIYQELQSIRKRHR
Chain of Jak2 (O60674 whole entry, looked up): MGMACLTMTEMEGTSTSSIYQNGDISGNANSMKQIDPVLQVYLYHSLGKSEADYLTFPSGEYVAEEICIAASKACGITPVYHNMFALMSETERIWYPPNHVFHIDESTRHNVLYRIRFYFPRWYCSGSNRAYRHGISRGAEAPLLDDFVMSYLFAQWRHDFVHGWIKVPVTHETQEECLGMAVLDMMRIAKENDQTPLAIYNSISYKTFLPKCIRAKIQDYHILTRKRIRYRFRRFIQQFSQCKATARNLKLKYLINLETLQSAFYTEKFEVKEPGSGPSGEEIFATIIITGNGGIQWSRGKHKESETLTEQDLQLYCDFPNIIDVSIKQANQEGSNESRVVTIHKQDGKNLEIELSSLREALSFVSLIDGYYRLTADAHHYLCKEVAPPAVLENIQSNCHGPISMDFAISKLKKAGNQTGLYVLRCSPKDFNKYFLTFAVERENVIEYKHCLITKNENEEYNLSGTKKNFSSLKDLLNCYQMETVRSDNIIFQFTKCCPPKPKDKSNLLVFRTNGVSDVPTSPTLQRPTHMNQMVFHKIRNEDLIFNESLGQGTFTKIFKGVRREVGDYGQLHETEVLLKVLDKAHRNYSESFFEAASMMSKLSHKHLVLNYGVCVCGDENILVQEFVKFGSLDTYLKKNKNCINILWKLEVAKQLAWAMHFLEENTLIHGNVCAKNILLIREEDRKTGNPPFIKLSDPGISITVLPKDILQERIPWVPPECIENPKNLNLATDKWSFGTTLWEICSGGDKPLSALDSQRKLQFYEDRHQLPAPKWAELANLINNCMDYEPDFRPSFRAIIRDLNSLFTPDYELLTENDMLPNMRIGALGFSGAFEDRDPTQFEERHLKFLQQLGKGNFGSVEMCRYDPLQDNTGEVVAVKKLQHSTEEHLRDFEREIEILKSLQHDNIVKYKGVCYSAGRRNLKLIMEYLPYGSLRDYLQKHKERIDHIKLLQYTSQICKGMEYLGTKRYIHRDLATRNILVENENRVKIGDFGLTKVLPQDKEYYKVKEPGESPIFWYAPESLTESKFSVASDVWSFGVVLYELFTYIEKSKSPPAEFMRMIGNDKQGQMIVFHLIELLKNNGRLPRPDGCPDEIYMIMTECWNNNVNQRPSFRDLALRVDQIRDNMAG
Chain of MERTK (Q12866 whole entry, looked up): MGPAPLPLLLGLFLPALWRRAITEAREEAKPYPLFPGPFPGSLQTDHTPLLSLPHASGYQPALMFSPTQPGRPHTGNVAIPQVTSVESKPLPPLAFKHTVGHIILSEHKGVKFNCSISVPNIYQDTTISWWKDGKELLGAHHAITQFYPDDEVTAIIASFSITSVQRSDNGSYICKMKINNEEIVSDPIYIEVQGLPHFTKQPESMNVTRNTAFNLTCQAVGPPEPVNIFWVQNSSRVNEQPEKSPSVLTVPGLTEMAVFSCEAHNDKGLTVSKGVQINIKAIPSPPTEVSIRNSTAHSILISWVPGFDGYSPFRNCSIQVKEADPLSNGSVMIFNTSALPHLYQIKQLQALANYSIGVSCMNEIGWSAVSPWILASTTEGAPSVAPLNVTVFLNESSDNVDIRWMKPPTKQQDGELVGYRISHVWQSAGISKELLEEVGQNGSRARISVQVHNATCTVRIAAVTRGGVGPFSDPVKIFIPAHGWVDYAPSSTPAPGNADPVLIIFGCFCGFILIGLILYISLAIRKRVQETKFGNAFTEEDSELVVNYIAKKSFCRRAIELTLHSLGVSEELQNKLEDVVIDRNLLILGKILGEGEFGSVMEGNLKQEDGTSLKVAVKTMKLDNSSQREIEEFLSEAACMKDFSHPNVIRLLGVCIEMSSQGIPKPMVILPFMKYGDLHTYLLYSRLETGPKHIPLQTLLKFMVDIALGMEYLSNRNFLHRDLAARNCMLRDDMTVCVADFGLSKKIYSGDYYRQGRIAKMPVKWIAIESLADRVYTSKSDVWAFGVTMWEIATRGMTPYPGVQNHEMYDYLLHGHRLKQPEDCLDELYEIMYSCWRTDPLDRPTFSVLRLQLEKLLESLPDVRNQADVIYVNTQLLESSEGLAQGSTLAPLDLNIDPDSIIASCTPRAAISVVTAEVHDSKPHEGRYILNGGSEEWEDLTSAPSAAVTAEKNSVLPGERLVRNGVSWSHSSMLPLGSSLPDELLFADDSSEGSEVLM
Chain of Fyn (P06241 whole entry, looked up): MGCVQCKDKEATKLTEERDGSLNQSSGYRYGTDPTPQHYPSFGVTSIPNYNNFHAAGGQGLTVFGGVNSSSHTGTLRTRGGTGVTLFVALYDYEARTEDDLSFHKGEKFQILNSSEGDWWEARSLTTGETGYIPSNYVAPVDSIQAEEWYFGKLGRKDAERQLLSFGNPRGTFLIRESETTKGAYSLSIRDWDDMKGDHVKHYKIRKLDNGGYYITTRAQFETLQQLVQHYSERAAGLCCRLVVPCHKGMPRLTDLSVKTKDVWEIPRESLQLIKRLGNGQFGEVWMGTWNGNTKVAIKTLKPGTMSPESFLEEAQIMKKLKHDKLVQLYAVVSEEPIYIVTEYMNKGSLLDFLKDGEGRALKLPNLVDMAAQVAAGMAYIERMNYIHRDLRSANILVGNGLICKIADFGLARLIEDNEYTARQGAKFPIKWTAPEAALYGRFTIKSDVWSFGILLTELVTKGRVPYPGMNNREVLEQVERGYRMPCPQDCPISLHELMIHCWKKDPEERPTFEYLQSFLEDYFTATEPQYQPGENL

Sequence | SH2 binding enrichment (Grb2 SH2) | SH2 binding enrichment (SHP2-C SH2) | SH2 binding enrichment (c-Src SH2) | phosphorylation enrichment (AncSZ) | phosphorylation enrichment (EPHB1) | phosphorylation enrichment (EPHB2) | phosphorylation enrichment (FGFR1) | phosphorylation enrichment (FGFR3) | phosphorylation enrichment (Fer (mouse)) | phosphorylation enrichment (Fes) | phosphorylation enrichment (Fyn) | phosphorylation enrichment (Hck) | phosphorylation enrichment (Jak2) | phosphorylation enrichment (MERTK) | phosphorylation enrichment (c-Abl (mouse)) | phosphorylation enrichment (c-Src)
NTPNTYLRVNV [ADD2_Y440] | 0.927 | 1.29 | 0.485 | 0.891 | 0.412 | 0.47 | 0.44 | 0.598 | 0.38 | 0.98 | 0.433 | 0.428 | 0.908 | 0.347 | 0.587 | 0.436
NTSKMYIPHTD [EXPH5_Y782_D777N] | 0.897 | 0.68 | 0.386 | 0.663 | 0.35 | 0.423 | 0.415 | 0.523 | 0.469 | 0.609 | 0.45 | 0.462 | 0.562 | 0.462 | 0.532 | 0.474
NVPILYTASQA [CTNNA1_Y222] | 0.762 | 0.628 | 0.435 | 0.553 | 0.432 | 0.449 | 0.464 | 0.501 | 0.472 | 0.597 | 0.421 | 0.444 | 0.688 | 0.687 | 0.576 | 0.418
PAEPRYRARQR [KCNJ11_Y26] | 0.675 | 0.788 | 0.474 | 1.02 | 0.635 | 0.722 | 0.576 | 0.599 | 0.673 | 0.718 | 0.746 | 0.878 | 1 | 0.929 | 0.737 | 0.958
PDMHSYMVRYN [GRIN2D_Y732] | 0.858 | 0.97 | 0.613 | 0.955 | 0.637 | 0.787 | 0.767 | 1.04 | 0.674 | 1.09 | 0.64 | 0.706 | 1.07 | 0.616 | 1.02 | 0.782
PEIIAYQPYGK [PRKCG_Y529] | 0.747 | 0.676 | 0.622 | 0.852 | 0.585 | 0.665 | 0.823 | 0.723 | 0.537 | 1.08 | 0.68 | 0.82 | 1.31 | 0.589 | 1.15 | 0.523
PEVCDYGLGGG [GSTO1_Y239_A236V] | 1.05 | 1.16 | 0.562 | 1.6 | 0.575 | 0.812 | 0.689 | 0.803 | 0.807 | 1.07 | 0.965 | 0.765 | 1.03 | 0.837 | 0.726 | 0.611
PKGWNYELPAT [PROM1_Y34_A31G] | 1.14 | 0.613 | 1.25 | 1 | 0.597 | 0.454 | 0.518 | 0.592 | 0.433 | 0.867 | 0.531 | 0.516 | 0.698 | 0.45 | 0.696 | 0.383
PLDVEYFTLQI [TP53_Y327_G325V] | 0.743 | 0.604 | 0.309 | 2.47 | 0.804 | 0.659 | 7.84 | 5.88 | 0.578 | 1.46 | 2.35 | 1.2 | 2.69 | 0.55 | 1.11 | 2.72
PLLEYYWDIFT [CDAN1_Y713_R714W] | 1.25 | 1.25 | 0.959 | 2.64 | 2.64 | 1.28 | 8.76 | 7.06 | 0.906 | 2.27 | 1.32 | 0.79 | 2.65 | 1.02 | 1.61 | 1.19
PLLLSYFLIKW [NUP160_Y773_YF] | 1.13 | 1.04 | 0.662 | 1.37 | 0.909 | 0.622 | 1.53 | 1.73 | 0.37 | 1.8 | 0.561 | 0.761 | 3.01 | 0.558 | 1.33 | 0.684
PPTFRYERGSR [INPPL1_Y663_YF] | 0.503 | 0.318 | 0.336 | 0.974 | 0.503 | 0.579 | 0.803 | 0.69 | 0.546 | 0.822 | 0.671 | 0.622 | 0.692 | 0.753 | 0.704 | 0.521
PQEVTYAQLDH [KIR3DL2_Y398] | 0.873 | 8.91 | 1.25 | 2.44 | 1.3 | 1.33 | 3.41 | 2.12 | 3.3 | 2.64 | 9.11 | 10.7 | 2.87 | 3.38 | 4.39 | 13.6
PRQRRYVFFFS [PTEN_Y174_S170R_YF] | 0.861 | 0.453 | 0.453 | 0.739 | 0.606 | 0.343 | 0.62 | 0.715 | 0.555 | 0.605 | 0.575 | 0.446 | 0.262 | 0.574 | 0.385 | 0.597
PSELFYSKIGP [SMG1_Y2254_YF] | 1.03 | 2.31 | 4.64 | 1.21 | 2.31 | 2.08 | 5.34 | 3.84 | 10.4 | 1.2 | 3.97 | 10.6 | 2.1 | 15.5 | 2.46 | 5.2
PSSRDYKDNIK [PIGN_Y227_H229D] | 1.16 | 0.449 | 0.394 | 0.556 | 0.595 | 0.467 | 0.614 | 0.614 | 0.407 | 0.649 | 0.496 | 0.381 | 0.9 | 0.727 | 0.47 | 0.569
PVDNLYAEPAV [PRPS1_Y146] | 1.04 | 0.63 | 0.671 | 2.52 | 5.2 | 9.31 | 0.61 | 0.986 | 4.64 | 1.31 | 1.96 | 3.99 | 1.02 | 6.34 | 8.54 | 1.56
PVQAADQKVVA [HBB_Y131_Y131D] | 0.731 | 0.733 | 0.388 | 0.918 | 0.508 | 0.718 | 0.654 | 0.816 | 0.482 | 1.18 | 0.62 | 0.576 | 0.893 | 0.593 | 0.781 | 0.605

More lines, main results first:

SH2 binding enrichment (Grb2 SH2) | SH2 binding enrichment (SHP2-C SH2) | SH2 binding enrichment (c-Src SH2) | Sequence | phosphorylation enrichment (AncSZ) | phosphorylation enrichment (EPHB1) | phosphorylation enrichment (EPHB2) | phosphorylation enrichment (FGFR1) | phosphorylation enrichment (FGFR3) | phosphorylation enrichment (Fer (mouse)) | phosphorylation enrichment (Fes) | phosphorylation enrichment (Fyn) | phosphorylation enrichment (Hck) | phosphorylation enrichment (Jak2) | phosphorylation enrichment (MERTK) | phosphorylation enrichment (c-Abl (mouse)) | phosphorylation enrichment (c-Src)
0.848 | 0.701 | 0.598 | NTTIHYNFMCN [TP53_Y234_C229N_YF] | 1.14 | 0.698 | 0.618 | 0.542 | 0.828 | 0.557 | 1.24 | 0.495 | 0.511 | 1.02 | 0.427 | 0.782 | 0.46
1.06 | 0.944 | 0.826 | NVDGKYSFLKV [GRM3_Y478_G475D_YF] | 0.624 | 0.394 | 0.356 | 0.426 | 0.505 | 0.48 | 0.824 | 0.383 | 0.431 | 0.719 | 0.508 | 0.534 | 0.439
1.11 | 0.822 | 1.42 | PDDPNYSLVDD [PSTPIP2_Y323] | 2.13 | 1.09 | 1.49 | 1.06 | 1.31 | 1.07 | 1.81 | 1.15 | 1.11 | 1.4 | 0.662 | 0.8 | 0.603
0.561 | 0.704 | 0.655 | PEADKYHLTYA [FGG_Y300_R301H] | 0.685 | 0.51 | 0.592 | 0.665 | 0.771 | 0.282 | 0.985 | 0.608 | 0.701 | 0.908 | 0.742 | 1.15 | 0.915
29.8 | 1.13 | 5.68 | PFSNSYENSLI [EPOR_Y489_P488S_YF] | 1.4 | 1.15 | 0.498 | 0.577 | 1.51 | 0.809 | 1.21 | 0.727 | 0.78 | 1.16 | 0.402 | 0.877 | 0.862
1.22 | 1.16 | 0.624 | PINLYYLMDLS [ITGB2_Y131_D128N] | 3.58 | 8.27 | 6.74 | 16.3 | 15.7 | 5.63 | 2.62 | 4.6 | 4.27 | 6.89 | 11.6 | 1.44 | 4.42
0.72 | 0.617 | 2.12 | PIYEGYALPHA [ACTA1_Y171] | 2.11 | 27.2 | 35.7 | 1.01 | 0.995 | 26.2 | 3.4 | 19.8 | 17.3 | 1.4 | 18.1 | 31.3 | 14.8
0.644 | 2.55 | 0.451 | PLDGEHFTLQI [TP53_Y327_Y327H] | 1.62 | 0.577 | 0.632 | 0.587 | 0.885 | 0.646 | 1.87 | 0.668 | 0.786 | 1.43 | 0.465 | 1.19 | 0.605
0.615 | 0.498 | 0.349 | PLDGEYVTLQI [TP53_Y327_F328V] | 1.56 | 0.802 | 0.789 | 1.75 | 1.57 | 0.609 | 1.32 | 0.984 | 0.922 | 1.37 | 0.477 | 1.17 | 0.919
1.27 | 1.29 | 0.992 | PLRANYLIARV [HLCS_Y635_D634N] | 0.927 | 1.12 | 0.861 | 0.707 | 0.853 | 0.7 | 1.12 | 0.769 | 0.763 | 1.27 | 0.716 | 2.74 | 1.01
1.09 | 1.24 | 0.822 | PLYRKYWPNHI [GREB1L_Y1560] | 1.48 | 0.813 | 0.645 | 1.15 | 1.07 | 0.84 | 1.34 | 1.07 | 1.11 | 0.95 | 0.708 | 1.05 | 0.882
0.602 | 1.09 | 0.654 | PQGVRYIFTID [DCX_Y103_YF] | 1.68 | 0.587 | 0.524 | 0.61 | 0.96 | 0.826 | 3.66 | 0.617 | 0.714 | 1.89 | 0.664 | 1.38 | 0.587
1.27 | 0.834 | 0.661 | PRARTYCYKQE [KLHDC9_Y175_S171R] | 0.847 | 0.467 | 0.574 | 0.497 | 0.557 | 0.716 | 1.01 | 0.527 | 0.435 | 0.981 | 0.483 | 0.91 | 0.667
0.75 | 0.636 | 0.379 | PSSNLYFRCLT [CNGA3_Y168_W171C_YF] | 1.5 | 0.828 | 0.809 | 1.19 | 1.03 | 0.694 | 1.63 | 0.707 | 0.88 | 1.66 | 0.808 | 0.967 | 0.48
0.936 | 0.629 | 0.484 | PSSNLYYRCLT [CNGA3_Y168_W171C] | 1.68 | 1.23 | 0.78 | 1.9 | 1.87 | 0.655 | 1.06 | 0.883 | 1.89 | 2.31 | 3.88 | 0.742 | 1.05

From the supplement of paper PMC10065799, “High-throughput profiling of sequence recognition by tyrosine kinases and SH2 domains using bacterial peptide display” (eLife, 2023)
